# In patent publication US6676943:
# B1: His-tagged CppA protein (recombinant C3-degrading proteinase of Streptococcus pneumoniae encoded by ORF3 / cppA) (protein)
# chain: MNVNQIVRIIPTLKANNRKLNETFYIETLGMKALLEESAFLSLGDQTGLEKLVLEEAPSMRTRKVEGRKKLARLIVKVENPLEIEGILSKTDSIHRLYKGQNGYAFEIFSPEDDLILIHAEDDIASLVEVGEKPEFQTDLASISLSKFEISMELHLPTDIESFLESSEIGASLDFIPAQGQDLTVDNTVTWDLSMLKFLVNELDIASLRQKFESTEYFIPKSEKFFLGKDRNNVELWFEEV
# Biological target: human complement protein C3, P01024
# Sequence (P01024 whole entry, looked up): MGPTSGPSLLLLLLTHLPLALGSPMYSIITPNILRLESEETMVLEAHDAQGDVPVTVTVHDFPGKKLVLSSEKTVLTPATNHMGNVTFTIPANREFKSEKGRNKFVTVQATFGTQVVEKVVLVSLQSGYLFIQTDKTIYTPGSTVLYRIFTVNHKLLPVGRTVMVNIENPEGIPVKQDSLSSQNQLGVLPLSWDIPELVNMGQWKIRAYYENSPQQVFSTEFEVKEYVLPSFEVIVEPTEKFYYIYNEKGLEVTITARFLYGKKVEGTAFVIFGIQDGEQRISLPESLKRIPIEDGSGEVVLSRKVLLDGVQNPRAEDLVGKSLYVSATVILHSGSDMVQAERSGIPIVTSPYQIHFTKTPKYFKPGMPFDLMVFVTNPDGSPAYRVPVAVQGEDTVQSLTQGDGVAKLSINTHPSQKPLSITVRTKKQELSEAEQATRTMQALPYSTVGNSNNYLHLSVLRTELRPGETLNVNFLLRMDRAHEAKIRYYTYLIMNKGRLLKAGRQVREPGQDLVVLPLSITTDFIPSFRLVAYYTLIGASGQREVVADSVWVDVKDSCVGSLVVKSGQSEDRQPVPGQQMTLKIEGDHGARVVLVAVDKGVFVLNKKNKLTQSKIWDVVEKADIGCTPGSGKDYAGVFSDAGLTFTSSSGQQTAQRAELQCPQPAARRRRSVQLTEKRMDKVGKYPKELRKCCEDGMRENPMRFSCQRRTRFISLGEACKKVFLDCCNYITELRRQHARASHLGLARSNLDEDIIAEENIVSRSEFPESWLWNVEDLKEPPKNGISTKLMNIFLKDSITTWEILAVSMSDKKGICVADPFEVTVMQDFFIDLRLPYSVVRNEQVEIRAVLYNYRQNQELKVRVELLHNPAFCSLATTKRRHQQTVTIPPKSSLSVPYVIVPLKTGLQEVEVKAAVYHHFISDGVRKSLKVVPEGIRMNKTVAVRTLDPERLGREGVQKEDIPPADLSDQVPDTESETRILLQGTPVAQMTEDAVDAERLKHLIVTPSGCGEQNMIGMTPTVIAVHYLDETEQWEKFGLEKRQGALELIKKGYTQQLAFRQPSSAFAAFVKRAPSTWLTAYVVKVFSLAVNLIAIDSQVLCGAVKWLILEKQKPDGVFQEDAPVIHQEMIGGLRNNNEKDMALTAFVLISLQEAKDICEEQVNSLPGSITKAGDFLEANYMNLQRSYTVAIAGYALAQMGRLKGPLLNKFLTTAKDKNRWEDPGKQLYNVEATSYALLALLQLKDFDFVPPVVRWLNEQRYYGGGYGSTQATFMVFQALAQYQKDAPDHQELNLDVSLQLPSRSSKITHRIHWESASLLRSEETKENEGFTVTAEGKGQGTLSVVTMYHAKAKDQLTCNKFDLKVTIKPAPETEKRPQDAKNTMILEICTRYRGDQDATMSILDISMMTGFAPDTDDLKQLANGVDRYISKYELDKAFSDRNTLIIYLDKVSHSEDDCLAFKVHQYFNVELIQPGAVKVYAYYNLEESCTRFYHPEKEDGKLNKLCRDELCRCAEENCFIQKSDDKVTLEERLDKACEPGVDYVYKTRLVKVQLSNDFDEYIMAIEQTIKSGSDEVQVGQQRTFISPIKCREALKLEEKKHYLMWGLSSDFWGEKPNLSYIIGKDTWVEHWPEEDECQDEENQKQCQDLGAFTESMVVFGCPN
protein,measurement,value
B1,C3 degradation (4 hrs at 37 C in PBS; reducing SDS-PAGE and Western Blot with polyclonal anti-C3),the protein degraded human C3 protein. Both α and β chains of C3 molecules were susceptible to degradation
same,C3 degradation (4 hrs at 37 C in PBS; reducing SDS-PAGE and Western immunoblotting with polyclonal anti-C3),the samples that contained the expressed protein degraded C3 molecules ... the α chain was almost completely degraded while the β chain was partially degraded in the ORF3 samples
